B1: MAb AR1A (antibody, V domains shown)
VH: LEQSGAEVKKPGSSVKVSCRASGSPYSSYTITWVRQAPGQGLEWMGGIILMTGKANYAQKFQGRVTITADRATATAYMEMSSLTSDDTAIYYCARDPYVYAGDDVRSLSRWGQGTPVIVSS
VL: not shown
notes: also called IgG1 of Fab B2
B2: MAb AR1B (antibody, V domains shown)
VH: LESGGGLVQPGGSLRLSCEASGYYFSSFAMSWVRQTPGKGLEWVSSIAGGTLGRTSYRDSVKGRFTISRDNSKNTVFLHMNNLRPEDTAVYYCAKDPLLFAGGPNWFDHWGQGTLVTVSS
VL: not shown
notes: also called IgG1 of Fab D1
B3: MAb AR2A (antibody, V domains shown)
VH: LEQSGAEMKKPGASLKVSCKTSGYTFDDYGVTWVRQAPGQGLEWMGWISAYSGNTFYARKFQGRVTMTTDPSTRTAYMELRSLRSDDTAVYFCARDRGLAINGVVFPYFGLDVWGQGTTVTVSS
VL: ELTQSPVSLPVTPGEPASISCRSSQSLLHSNGNHYLDWYLQKPGQSPQLLMYLGSNRASGVPDRFSGSGSGTDFTLKISRVEAEDVGVYYCMQGLQTPWTFGQGTKVEIKR
notes: also called IgG1 of Fab G
B4: MAb AR3D (antibody, V domains shown)
VH: LEQSGAEVKKPGSSVKVSCKASGDTFRSYVITWARQAPGQGLEWMGAIIPFFGTTNLAQKFQGRVTITADESTKTVYMDLSSLRSDDTAVYYCAKAGDLSVGGVLAGGVPHLRHFDPWGQGTLVTVSS
VL: ELTQSPGTLSLSPGERATLSCRAGQTVASNSLAWYQHKPGQAPRLLIYGASIRASGIPDRFSGSGSGTDFTLTISRLEPEDFAVYYCQQYGLSSTFGQGTRLEIKR
notes: also called IgG1 of Fab L4

biological target: H77 E1E2 mutant L413A (HCV isolate H77, UniProt P27958 192-383; P27958 384-746); assay: ELISA, alanine mutant E1E2

Going from B1 to B2, the “binding vs wild-type E1E2” value rises from 103% to 109%.

Going from B3 to B4, the “binding vs wild-type E1E2” value falls from 92% to 83%.

biological target: H77 E1E2 mutant I414A (HCV isolate H77, UniProt P27958 192-383; P27958 384-746); assay: ELISA, alanine mutant E1E2

First: B1
Second: B2
The “binding vs wild-type E1E2” value of the first is lower: 128% for the first, 147% for the second.

Going from B3 to B4, the “binding vs wild-type E1E2” value falls from 180% to 126%.

biological target: H77 E1E2 mutant N415A (HCV isolate H77, UniProt P27958 192-383; P27958 384-746); assay: ELISA, alanine mutant E1E2

Going from B1 to B2, the “binding vs wild-type E1E2” value rises from 106% to 131%.

Compared with B3, B4 is higher in “binding vs wild-type E1E2” value: 122% for the first, 131% for the second.

biological target: H77 E1E2 mutant N417A (HCV isolate H77, UniProt P27958 192-383; P27958 384-746); assay: ELISA, alanine mutant E1E2

First: B1
Second: B2
The “binding vs wild-type E1E2” value of the first is lower: 17% for the first, 54% for the second.

Going from B3 to B4, the “binding vs wild-type E1E2” value rises from 58% to 74%.

biological target: H77 E1E2 mutant G418A (HCV isolate H77, UniProt P27958 192-383; P27958 384-746); assay: ELISA, alanine mutant E1E2

First: B1
Second: B2
The “binding vs wild-type E1E2” value of the first is lower: 51% for the first, 143% for the second.

Compared with B3, B4 is lower in “binding vs wild-type E1E2” value: 83% for the first, 60% for the second.

biological target: H77 E1E2 mutant S419A (HCV isolate H77, UniProt P27958 192-383; P27958 384-746); assay: ELISA, alanine mutant E1E2

First: B1
Second: B2
The “binding vs wild-type E1E2” value of the first is lower: 84% for the first, 118% for the second.

First: B3
Second: B4
The “binding vs wild-type E1E2” value of the first is higher: 93% for the first, 73% for the second.

biological target: H77 E1E2 mutant H421A (HCV isolate H77, UniProt P27958 192-383; P27958 384-746); assay: ELISA, alanine mutant E1E2

First: B1
Second: B2
The “binding vs wild-type E1E2” value of the first is higher: 167% for the first, 72% for the second.

First: B3
Second: B4
The “binding vs wild-type E1E2” value of the first is lower: 84% for the first, 87% for the second.

biological target: H77 E1E2 mutant I422A (HCV isolate H77, UniProt P27958 192-383; P27958 384-746); assay: ELISA, alanine mutant E1E2

Compared with B1, B2 is lower in “binding vs wild-type E1E2” value: 106% for the first, 58% for the second.

Going from B3 to B4, the “binding vs wild-type E1E2” value rises from 95% to 113%.

biological target: H77 E1E2 mutant N423A (HCV isolate H77, UniProt P27958 192-383; P27958 384-746); assay: ELISA, alanine mutant E1E2

Going from B1 to B2, the “binding vs wild-type E1E2” value falls from 79% to 38%.

Compared with B3, B4 is lower in “binding vs wild-type E1E2” value: 69% for the first, 65% for the second.

biological target: H77 E1E2 mutant S424A (HCV isolate H77, UniProt P27958 192-383; P27958 384-746); assay: ELISA, alanine mutant E1E2

B1 and B2 are the same in “binding vs wild-type E1E2” value: 103% for the first, 103% for the second.

Going from B3 to B4, the “binding vs wild-type E1E2” value falls from 91% to 6%.

biological target: H77 E1E2 mutant R483A (HCV isolate H77, UniProt P27958 192-383; P27958 384-746); assay: ELISA, alanine mutant E1E2

Compared with B1, B2 is lower in “binding vs wild-type E1E2” value: 64% for the first, 32% for the second.

Compared with B3, B4 is higher in “binding vs wild-type E1E2” value: 68% for the first, 151% for the second.

biological target: H77 E1E2 mutant Y485A (HCV isolate H77, UniProt P27958 192-383; P27958 384-746); assay: ELISA, alanine mutant E1E2

First: B1
Second: B2
The “binding vs wild-type E1E2” value of the first is lower: 17% for the first, 30% for the second.

Compared with B3, B4 is higher in “binding vs wild-type E1E2” value: 67% for the first, 145% for the second.

biological target: H77 E1E2 mutant H488A (HCV isolate H77, UniProt P27958 192-383; P27958 384-746); assay: ELISA, alanine mutant E1E2

Going from B1 to B2, the “binding vs wild-type E1E2” value falls from 91% to 63%.

Compared with B3, B4 is higher in “binding vs wild-type E1E2” value: 72% for the first, 123% for the second.

biological target: H77 E1E2 mutant Y489A (HCV isolate H77, UniProt P27958 192-383; P27958 384-746); assay: ELISA, alanine mutant E1E2

First: B1
Second: B2
The “binding vs wild-type E1E2” value of the first is higher: 189% for the first, 52% for the second.

Going from B3 to B4, the “binding vs wild-type E1E2” value falls from 138% to 113%.

biological target: H77 E1E2 mutant P491A (HCV isolate H77, UniProt P27958 192-383; P27958 384-746); assay: ELISA, alanine mutant E1E2

First: B1
Second: B2
The “binding vs wild-type E1E2” value of the first is higher: 119% for the first, 118% for the second.

Compared with B3, B4 is higher in “binding vs wild-type E1E2” value: 123% for the first, 204% for the second.

biological target: H77 E1E2 mutant P525A (HCV isolate H77, UniProt P27958 192-383; P27958 384-746); assay: ELISA, alanine mutant E1E2

Compared with B1, B2 is lower in “binding vs wild-type E1E2” value: 101% for the first, 33% for the second.

First: B3
Second: B4
The “binding vs wild-type E1E2” value of the first is higher: 109% for the first, 53% for the second.

biological target: H77 E1E2 mutant Y527A (HCV isolate H77, UniProt P27958 192-383; P27958 384-746); assay: ELISA, alanine mutant E1E2

Going from B1 to B2, the “binding vs wild-type E1E2” value rises from 61% to 83%.

Compared with B3, B4 is lower in “binding vs wild-type E1E2” value: 149% for the first, 119% for the second.

biological target: H77 E1E2 mutant W529A (HCV isolate H77, UniProt P27958 192-383; P27958 384-746); assay: ELISA, alanine mutant E1E2

Compared with B1, B2 is lower in “binding vs wild-type E1E2” value: 367% for the first, 94% for the second.

First: B3
Second: B4
The “binding vs wild-type E1E2” value of the first is higher: 132% for the first, 88% for the second.

biological target: H77 E1E2 mutant N532A (HCV isolate H77, UniProt P27958 192-383; P27958 384-746); assay: ELISA, alanine mutant E1E2

Compared with B1, B2 is lower in “binding vs wild-type E1E2” value: 82% for the first, 73% for the second.

First: B3
Second: B4
The “binding vs wild-type E1E2” value of the first is lower: 58% for the first, 159% for the second.

biological target: H77 E1E2 mutant D533A (HCV isolate H77, UniProt P27958 192-383; P27958 384-746); assay: ELISA, alanine mutant E1E2

Going from B1 to B2, the “binding vs wild-type E1E2” value falls from 101% to 90%.

Compared with B3, B4 is higher in “binding vs wild-type E1E2” value: 60% for the first, 146% for the second.

biological target: H77 E1E2 mutant D535A (HCV isolate H77, UniProt P27958 192-383; P27958 384-746); assay: ELISA, alanine mutant E1E2

First: B1
Second: B2
The “binding vs wild-type E1E2” value of the first is higher: 235% for the first, 121% for the second.

Compared with B3, B4 is lower in “binding vs wild-type E1E2” value: 133% for the first, 32% for the second.

biological target: H77 E1E2 mutant V538A (HCV isolate H77, UniProt P27958 192-383; P27958 384-746); assay: ELISA, alanine mutant E1E2

Going from B1 to B2, the “binding vs wild-type E1E2” value rises from 17% to 52%.

Going from B3 to B4, the “binding vs wild-type E1E2” value rises from 62% to 95%.

biological target: H77 E1E2 mutant N540A (HCV isolate H77, UniProt P27958 192-383; P27958 384-746); assay: ELISA, alanine mutant E1E2

First: B1
Second: B2
The “binding vs wild-type E1E2” value of the first is lower: 0% for the first, 25% for the second.

Going from B3 to B4, the “binding vs wild-type E1E2” value rises from 30% to 56%.

biological target: H77 E1E2 mutant R543A (HCV isolate H77, UniProt P27958 192-383; P27958 384-746); assay: ELISA, alanine mutant E1E2

Compared with B1, B2 is lower in “binding vs wild-type E1E2” value: 239% for the first, 135% for the second.

Compared with B3, B4 is higher in “binding vs wild-type E1E2” value: 125% for the first, 276% for the second.

biological target: H77 E1E2 mutant P544A (HCV isolate H77, UniProt P27958 192-383; P27958 384-746); assay: ELISA, alanine mutant E1E2

Compared with B1, B2 is lower in “binding vs wild-type E1E2” value: 69% for the first, 16% for the second.

Compared with B3, B4 is higher in “binding vs wild-type E1E2” value: 126% for the first, 318% for the second.

biological target: H77 E1E2 mutant G547A (HCV isolate H77, UniProt P27958 192-383; P27958 384-746); assay: ELISA, alanine mutant E1E2

Going from B1 to B2, the “binding vs wild-type E1E2” value falls from 34% to 0%.

First: B3
Second: B4
The “binding vs wild-type E1E2” value of the first is lower: 83% for the first, 202% for the second.

biological target: H77 E1E2 mutant W549A (HCV isolate H77, UniProt P27958 192-383; P27958 384-746); assay: ELISA, alanine mutant E1E2

B1 and B2 are the same in “binding vs wild-type E1E2” value: 0% for the first, 0% for the second.

First: B3
Second: B4
The “binding vs wild-type E1E2” value of the first is lower: 151% for the first, 274% for the second.

biological target: H77 E1E2 mutant F550A (HCV isolate H77, UniProt P27958 192-383; P27958 384-746); assay: ELISA, alanine mutant E1E2

Going from B1 to B2, the “binding vs wild-type E1E2” value falls from 379% to 257%.

Going from B3 to B4, the “binding vs wild-type E1E2” value rises from 156% to 320%.

— US20110311550A1 (Scripps Research, published 2011)
